The source of these data is publication PMC3770571.

Assay [1] concerns the target endogenous LANA of KSHV infected PEL cells (KSHV (HHV8) (endogenous in BCBL1, JSC1, BC3)) (UniProt Q9QR71). The assay can be described thus: co-IP.
Assay [2] has the same target. The assay can be described thus: co-IP; lysate of 30 million BCBL1 cells treated with 2 U micrococcal nuclease (mononucleosomes), anti-LANA IP.

Sequence of UniProt Q9QR71 (Q9QR71 whole entry): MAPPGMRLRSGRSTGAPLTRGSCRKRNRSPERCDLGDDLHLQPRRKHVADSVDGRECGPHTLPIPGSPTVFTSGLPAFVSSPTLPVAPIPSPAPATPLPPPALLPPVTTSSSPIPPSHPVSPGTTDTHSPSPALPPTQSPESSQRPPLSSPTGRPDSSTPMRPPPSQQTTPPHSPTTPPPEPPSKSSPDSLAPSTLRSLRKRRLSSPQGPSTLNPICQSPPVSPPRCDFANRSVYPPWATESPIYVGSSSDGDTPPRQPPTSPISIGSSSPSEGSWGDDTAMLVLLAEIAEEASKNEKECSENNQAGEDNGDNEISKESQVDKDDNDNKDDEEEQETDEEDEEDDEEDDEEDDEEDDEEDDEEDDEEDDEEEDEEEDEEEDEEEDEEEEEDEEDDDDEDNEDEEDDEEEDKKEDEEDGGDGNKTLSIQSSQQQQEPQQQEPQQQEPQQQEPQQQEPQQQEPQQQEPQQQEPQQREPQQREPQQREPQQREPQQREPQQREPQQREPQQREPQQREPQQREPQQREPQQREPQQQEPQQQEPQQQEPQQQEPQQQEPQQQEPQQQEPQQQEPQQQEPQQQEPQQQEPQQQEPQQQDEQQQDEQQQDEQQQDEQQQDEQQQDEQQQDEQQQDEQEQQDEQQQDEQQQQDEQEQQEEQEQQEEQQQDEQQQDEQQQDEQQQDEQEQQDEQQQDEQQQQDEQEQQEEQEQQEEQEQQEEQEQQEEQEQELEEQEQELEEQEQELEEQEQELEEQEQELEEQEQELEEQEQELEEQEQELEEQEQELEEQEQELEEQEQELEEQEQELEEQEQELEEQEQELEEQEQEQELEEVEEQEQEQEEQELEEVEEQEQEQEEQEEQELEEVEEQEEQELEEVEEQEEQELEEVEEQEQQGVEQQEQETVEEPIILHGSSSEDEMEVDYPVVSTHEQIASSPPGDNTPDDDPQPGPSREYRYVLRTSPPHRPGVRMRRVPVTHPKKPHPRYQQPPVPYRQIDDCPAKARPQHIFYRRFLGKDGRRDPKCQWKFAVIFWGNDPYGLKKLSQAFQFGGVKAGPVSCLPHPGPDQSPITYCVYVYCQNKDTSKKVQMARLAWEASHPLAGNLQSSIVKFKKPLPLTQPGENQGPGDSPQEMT

As for “endogenous histone H1 of human cells (from UniProt P16403 1-213) (natural protein)”, the figures for the relative density of the co-precipitated band (input set at 10%) in assay [1] and in assay [2] were 30% and 10%, respectively.
